According to US20190083615A1 (Merck Sharp & Dohme, published 2019):

Molecular target: T1, human LAG3 (Lymphocyte Activation Gene-3) expressed on cells (human, UniProt P18627 23-525)
T1 sequence: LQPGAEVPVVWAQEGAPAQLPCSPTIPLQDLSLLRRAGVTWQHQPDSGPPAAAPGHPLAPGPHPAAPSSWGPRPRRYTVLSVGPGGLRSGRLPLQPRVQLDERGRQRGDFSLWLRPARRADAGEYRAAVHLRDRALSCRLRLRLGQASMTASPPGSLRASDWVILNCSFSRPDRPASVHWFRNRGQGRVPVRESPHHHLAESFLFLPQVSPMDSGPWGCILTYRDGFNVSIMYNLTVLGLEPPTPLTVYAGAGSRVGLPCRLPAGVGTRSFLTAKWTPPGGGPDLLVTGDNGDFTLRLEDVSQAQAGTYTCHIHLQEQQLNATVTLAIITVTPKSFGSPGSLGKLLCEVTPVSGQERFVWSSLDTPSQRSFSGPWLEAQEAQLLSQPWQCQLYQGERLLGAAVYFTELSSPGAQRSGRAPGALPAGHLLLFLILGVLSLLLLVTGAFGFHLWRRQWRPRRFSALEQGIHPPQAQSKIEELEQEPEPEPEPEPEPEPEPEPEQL
Experiment: cell-based or functional assay

B1: Ab6: humanized light chain 45AGX Humanized x[LAG3_H] mAb (LB145.22D2.E1.D1 (VL3)) Kappa (PX) and humanized heavy chain 73AHD Humanized x[LAG3_H] mAb … (antibody)
heavy: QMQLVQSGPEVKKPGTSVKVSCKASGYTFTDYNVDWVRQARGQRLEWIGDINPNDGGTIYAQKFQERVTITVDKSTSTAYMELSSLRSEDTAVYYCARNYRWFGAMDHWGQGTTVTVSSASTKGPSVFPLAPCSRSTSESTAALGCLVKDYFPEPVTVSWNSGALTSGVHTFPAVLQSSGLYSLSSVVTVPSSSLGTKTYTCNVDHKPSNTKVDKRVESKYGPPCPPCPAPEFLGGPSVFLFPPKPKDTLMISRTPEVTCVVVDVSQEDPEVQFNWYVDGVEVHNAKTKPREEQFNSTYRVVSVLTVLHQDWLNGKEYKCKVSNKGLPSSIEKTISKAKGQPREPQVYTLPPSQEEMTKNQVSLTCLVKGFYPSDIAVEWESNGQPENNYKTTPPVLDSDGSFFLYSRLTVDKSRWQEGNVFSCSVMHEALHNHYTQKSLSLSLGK
light: DIVMTQTPLSLSVTPGQPASISCKASQSLDYEGDSDMNWYLQKPGQPPQLLIYGASNLESGVPDRFSGSGSGTDFTLKISRVEAEDVGVYYCQQSTEDPRTFGGGTKVEIKRTVAAPSVFIFPPSDEQLKSGTASVVCLLNNFYPREAKVQWKVDNALQSGNSQESVTEQDSKDSTYSLSSTLTLSKADYEKHKVYACEVTHQGLSSPVTKSFNRGEC
notes: Humanized 22D2 N55D, IgG4 S228P/kappa; also called Hu22D2 VH6/VL3 N55D (Ab 6); hu22D2 VH6/VL3 N55D
  IL-2 production by SEB-stimulated PBMC in combination with anti-PD1, fold over anti-PD-1 alone plus isotype control: 1.45 fold
  IL-2 production by SEB-stimulated PBMC, fold over isotype control: 1.54 fold
